The values that follow come from article doi:10.1101/2020.07.22.215871.

The target in the data set is T1, Tb927.11.16120-His (r16120) (Trypanosoma brucei, UniProt Q381H4 1-610).
T1 sequence: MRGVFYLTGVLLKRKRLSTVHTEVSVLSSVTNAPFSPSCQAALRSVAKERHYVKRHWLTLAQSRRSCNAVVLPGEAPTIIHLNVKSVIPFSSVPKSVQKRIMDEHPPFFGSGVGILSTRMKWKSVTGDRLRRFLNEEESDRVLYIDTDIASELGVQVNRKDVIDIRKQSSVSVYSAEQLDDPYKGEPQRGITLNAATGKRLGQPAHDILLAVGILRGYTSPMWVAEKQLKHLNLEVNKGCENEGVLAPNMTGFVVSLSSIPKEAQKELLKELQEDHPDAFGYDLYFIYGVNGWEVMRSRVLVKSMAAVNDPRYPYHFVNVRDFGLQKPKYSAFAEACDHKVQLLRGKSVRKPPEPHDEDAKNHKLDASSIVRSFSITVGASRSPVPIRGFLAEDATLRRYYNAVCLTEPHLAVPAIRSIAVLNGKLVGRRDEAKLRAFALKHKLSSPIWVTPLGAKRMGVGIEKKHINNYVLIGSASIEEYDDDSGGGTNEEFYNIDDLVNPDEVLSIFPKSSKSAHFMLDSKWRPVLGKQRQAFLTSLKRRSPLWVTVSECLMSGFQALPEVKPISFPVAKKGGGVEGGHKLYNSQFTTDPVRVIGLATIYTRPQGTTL
Briefly: EMSA.

B1: 73 bp conserved minicircle sequence (dsDNA)
DNA 1: GAAAAAACGGAAAATCTTATGGGCGTGCAAAAATACACATACACAAATCCCGTGCTTATTTTAGGCCATTTTT
DNA 2: AAAAATGGCCTAAAATAAGCACGGGATTTGTGTATGTGTATTTTTGCACGCCCATAAGATTTTCCGTTTTTTC
On to B1, for which the binding result is listed as “binds”.
